Measured values: PMC8809517, “Cofactor-independent RNA editing by a synthetic S-type PPR protein”
Positions count from the first letter of the chain named.

T1: GFP-9S library array, motif 4 ND N98S;D124K (synthetic construct, N98S;D124K)
T1 chain: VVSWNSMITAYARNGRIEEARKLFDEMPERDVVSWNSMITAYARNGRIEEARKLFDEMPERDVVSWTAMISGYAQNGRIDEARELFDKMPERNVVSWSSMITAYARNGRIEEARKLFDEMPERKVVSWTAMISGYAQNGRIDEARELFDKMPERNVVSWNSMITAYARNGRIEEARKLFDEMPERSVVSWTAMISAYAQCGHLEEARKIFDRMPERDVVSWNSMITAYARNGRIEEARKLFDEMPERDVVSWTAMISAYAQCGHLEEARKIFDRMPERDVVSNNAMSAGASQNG

T2: GFP-9S library array, motif 4 ND N98V;D124H (synthetic construct, N98V;D124H)
T2 chain: T1 chain with S98V, K124H

T3: GFP-9S library array, motif 4 ND N98P;D124G (synthetic construct, N98P;D124G)
T3 chain: T1 chain with S98P, K124G

T4: GFP-9S library array, motif 4 ND N98S;D124P (synthetic construct, N98S;D124P)
T4 chain: T1 chain with K124P

T5: GFP-9S library array, motif 4 ND N98G;D124M (synthetic construct, N98G;D124M)
T5 chain: T1 chain with S98G, K124M


Legend:
Assay in all cases: high-throughput RNA pulldown from lysate on Ni-NTA beads; HRP: 50 mM Tris pH 8, 150 mM NaCl, 1 mM beta-mercaptoethanol, 50 ug/ml BSA, 3 ug/ml yeast RNA, 0.5% heparin; ITC and FP: Tris pH 8, 200 mM KCl, 5% glycerol; MST: 50 mM Tris pH 8, 200 mM NaCl, 1 mM DTT, BSA, heparin, 0.05% Tween 20
Conditions in all cases: tags: N-terminal His-eGFP
[1] = target: T1, GFP-9S library array, motif 4 ND …
[2] = target: T2, GFP-9S library array, motif 4 ND …
[3] = target: T3, GFP-9S library array, motif 4 ND …
[4] = target: T4, GFP-9S library array, motif 4 ND …
[5] = target: T5, GFP-9S library array, motif 4 ND …

Row | Binder | Kd ([1]; label: 5' IRDye 800CW) | Kd ([2]; label: 5' IRDye 800CW) | Kd ([3]; label: 5' IRDye 800CW) | Kd ([4]; label: 5' IRDye 800CW) | Kd ([5]; label: 5' IRDye 800CW) | Kd ([1]; label: 5' Cy5) | Kd ([2]; label: 5' Cy5) | Kd ([3]; label: 5' Cy5) | Kd ([4]; label: 5' Cy5) | Kd ([5]; label: 5' Cy5)
1 | AUUAAACGUGA (ssRNA) [IR-rpoA-A] | 134 nM | 209 nM | 735 nM | 224 nM | 94.3 nM | – | – | – | – | –
2 | AUUAGACGUGA (ssRNA) [Cy5-rpoA-G] | – | – | – | – | – | 104 nM | 155 nM | 262 nM | 121 nM | 66 nM
3 | AUUAUACGUGA (ssRNA) [IR-rpoA-U] | 105 nM | 219 nM | 778 nM | 253 nM | 149 nM | – | – | – | – | –
4 | AUUACACGUGA (ssRNA) [Cy5-rpoA] | – | – | – | – | – | 86.7 nM | 160 nM | 345 nM | 122 nM | 57.8 nM
